In patent US20160201045A1, “Endo-xylanase and Coding Gene and Use Thereof” (SHANGHAI INSTITUTES FOR BIOLOGICAL SCIENCES CHINESE ACADEMY …, priority 2013, published 2016):

Columns and labels:
Type in all cases: biochemical
[1] = Standard enzymatic activity detection (DNS method) on birch xylan; conditions: substrate 2% (w/w), pH7.0, 50, 10 minutes
Method: Enzymatic activity of the endo-1,4-β-xylanase was tested by a DNS method as follows:
10 g NaOH were weighed and dissolved in about 400 ml ddH2O. 10 g dinitrosalicylic acid, 2 g phenol, 0.5 g anhydrous sodium sulfite and 200 g potassium sodium tartrate tetrahydrate were weighed and dissolved in about 300 ml ddH2O. The two solutions were mixed, diluted to 1 liter and preserved in dark.
100 μl DNS were added into each of the above standard samples. The mixtures were subjected to boiled water bath for 5 minutes for developing color. Absorbance value at 540 nm was detected by a microplate reader. Standard sample 1 was a blank control. The absorbance value of the blank control was subtracted from that of each sample and then the standard curve was plotted.
(§1) In a 100 μl reaction system, birch xylan was added to a final concentration of 1% (w/w), and Na2HPO4/NaH2PO4 buffer (pH7.0) was added to a final concentration of 100 mM. A suitable amount of enzyme solution diluted by the abovementioned buffer was added to the reaction system for reaction at 50[…] for 10 minutes. 100 μl DNS were added to stop the reaction. For the control, 100 μl DNS were firstly added to the above reaction system before adding the enzyme solution. The reaction mixtures were subjected to a boiled water bath for 5 minutes to develop color. Absorbance value at 540 nm was detected by a microplate reader. After subtracting the absorbance value of the control from that of the sample, the enzymatic activity unit (U) was calculated based on the standard curve.
Definition of enzymatic activity unit (U): 1U refers to the amount of enzyme required for catalytically hydrolyzing xylan to produce 1 μmol xylose.
Definition of specific activity unit: enzymatic activity of 1 mg protein (U/mg).
Various substrates with a final concentration of 2% (w/w) were treated by a suitable amount of enzymes at pH7.0 and 50[…] for 10 minutes. Enzymatic activity was tested according to the above standard enzymatic activity detection steps. […] No detectable enzymatic activity was found for the other test substrates. […]

[2] = Detection on temperature tolerance
Method: as §1
The Xyl7 enzyme solution was stored in a buffer having an optimum pH 7.0 at different temperatures (55° C., 50° C., 45° C.) or at 50° C. with addition of 70 mM mercaptoethan for different times (15 min, 30 min, 45 min, 60 min, 75 min). Enzymatic activity was tested according to the above standard enzymatic activity detection steps (enzymatic activity was tested after reacting at pH7.0, 50° C. for 10 minutes). The enzyme solution which was not subjected to heat treatment was used as a control. Its specific activity tested under pH 7.0, 50° C. was used as a reference value and its relative activity was defined as 100%. The relative activity of the treatment group was a ratio between the relative activity value obtained after storing at different temperatures for different times (treatment conditions) and the reference value. […] After storing at these temperatures for 45 min, the enzymatic activity decreased to be less than 50% of the maximum activity.

[3] = TLC analysis on hydrolyzed products of birch xylan by Xyl7
Method: 1% (w/w) Birch xylan was treated by 15 U Xyl7 at pH7.0 and 50[…] for 10 min, 1 h, 4 h, and 12 h, respectively, to obtain the hydrolyzed products. […], each 5 μl, were subjected to TLC for identification. The standard samples were xylose, xylobiose, and xylotriose. The developing agent comprised ethyl acetate, acetic acid and water in a ratio of 2:1:1(V/V/V). The chromogenic agent was a solution of 1 mL aniline, 1 g diphenylamine and 5 mL 85% phosphoric acid dissolved in 50 mL acetone.

[4] = Residual activity under feed additive conditions (acidic pH, 37° C.); conditions: pH 4-5, 37° C., 15-60 minutes
Method: as §1
As a feed additive, xylanase is required to retain its enzymatic activity in a pH environment of about 4 due to the acidic environment in the stomach of livestock, such as pig, and retain its enzymatic activity in a pH environment of about 6 due to the weak acidic environment in the digestive tract of chicken. Therefore, Xyl7 was tested for its residual enzymatic activity after treated in pH4 or pH5 at a 37° C. bath for 15, 30, 45 and 60 minutes. The residual enzymatic activity was a ratio between the specific activity of the enzyme obtained after various treatments and that of the un-treated enzyme.

[5] = pH 7.0, % of the maximum activity

B1: Xyl7: endo-1,4-β-xylanase of 505 amino acids, SEQ ID NO:2, from termite gut metagenome, expressed in E. coli with His tag (protein)
chain: MKKLIALSFIAAFFAPLFAQGPTWTTSTIQAYNGYDYELWNQNNAGTVSMKLTGDNGSGASAVGGTFTATWSNTQNVLFRSGKKWGSSSNQNHTQIGNMSINFAATWSSTDNVKMLGVYGWAYFTSANVPTKQENGTNASFSNQIEYYIIQDRGSYNPASGGTNAKKYGSATIDGIAYDFYVCDRINQPMLTGNGNFKQFFSVPQSASAHRTSGTISVSQHFNKWHELGMKMDGPLYEVAMKVESYTGSGSSNGSATVTKNLLTIGGTTPTPSSNSGGTTSSSSRASSSSRASSSSNAAVQATTCKTPLITYPTSTVPSDPYTACFKYTDDKCYVCKVENEGEFEGNMNTCGSGWVWDGTQIDNNLRDGYWYQEVPCPAGSSSSRSSSSSVAVSSSSRSSSSSVAASSSSRSSSSSASVSSSSEETPIRVLHTIPSKFRVRSLNNGALQIESNADVVLYLYDTKGKMAQKIEAPTGSSIVKLSVPAGIYIVRNVQTKEKLRVMVR
modifications: His tag; Intestinal tract metagenome of termite
- Specific Activity on birch xylan [1]: 4700 ± 57 U/mg
- effect of 70 mM mercaptoethan on loss of activity during storage ([2]; pH 7.0, 50° C., 70 mM mercaptoethan added): decrease rate of the enzymatic activity was further reduced
- activity after storing at 50° C. and 45° C. for 45 min [2, 5]: less than 50%
- activity after storing at 55° C. for 15 min [2, 5]: less than 50%
- hydrolyzed product of xylan, action time relatively short ([3]; 10 minutes, pH7.0, 50): oligoxylan
- hydrolyzed product of xylan, action time relatively long ([3]; 12 hours, pH7.0, 50): xylo-oligosaccharide, mainly including xylobiose, xylotriose and xylotetraose
- final hydrolyzed product if the enzyme was excessive ([3]; excess enzyme): xylose
- residual enzymatic activity in acidic environment [4]: retain a sufficiently high enzymatic activity
